Assay results published in publication PMC5499727 (Nucleic Acids Research, 2017).

Target: Mcm2/4/6/7 complex (wild type) (mouse, UniProt P97310 1-904; P49717 1-862; P97311 1-821; Q61881 1-719)
Experiment: co-sedimentation

Sequence of Mcm2/4/6/7 complex (wild type) (P97310 whole entry, chain 1 of 4): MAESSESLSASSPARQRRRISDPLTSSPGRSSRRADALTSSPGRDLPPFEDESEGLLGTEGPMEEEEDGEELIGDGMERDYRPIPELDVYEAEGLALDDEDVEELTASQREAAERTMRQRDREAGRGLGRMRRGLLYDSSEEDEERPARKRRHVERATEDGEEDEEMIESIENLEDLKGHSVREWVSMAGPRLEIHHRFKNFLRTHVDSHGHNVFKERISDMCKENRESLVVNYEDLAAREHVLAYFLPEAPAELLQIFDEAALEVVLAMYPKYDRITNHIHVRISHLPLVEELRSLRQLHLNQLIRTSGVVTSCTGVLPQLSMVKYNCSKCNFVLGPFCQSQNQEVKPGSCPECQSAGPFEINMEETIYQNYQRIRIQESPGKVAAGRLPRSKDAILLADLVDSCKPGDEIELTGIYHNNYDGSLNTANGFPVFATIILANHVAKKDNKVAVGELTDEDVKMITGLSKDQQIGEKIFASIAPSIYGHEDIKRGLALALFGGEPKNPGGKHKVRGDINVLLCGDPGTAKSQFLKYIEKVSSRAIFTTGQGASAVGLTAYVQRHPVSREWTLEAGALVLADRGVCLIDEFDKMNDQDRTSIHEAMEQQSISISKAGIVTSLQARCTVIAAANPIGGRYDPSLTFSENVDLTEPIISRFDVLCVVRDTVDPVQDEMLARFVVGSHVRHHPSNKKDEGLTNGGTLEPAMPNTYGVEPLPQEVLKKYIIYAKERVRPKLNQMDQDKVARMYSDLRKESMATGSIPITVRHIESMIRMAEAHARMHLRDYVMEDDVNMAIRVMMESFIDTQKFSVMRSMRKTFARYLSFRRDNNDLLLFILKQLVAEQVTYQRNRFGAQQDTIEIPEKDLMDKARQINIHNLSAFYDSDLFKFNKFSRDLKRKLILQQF
Sequence of Mcm2/4/6/7 complex (wild type) (P49717 whole entry, chain 2 of 4): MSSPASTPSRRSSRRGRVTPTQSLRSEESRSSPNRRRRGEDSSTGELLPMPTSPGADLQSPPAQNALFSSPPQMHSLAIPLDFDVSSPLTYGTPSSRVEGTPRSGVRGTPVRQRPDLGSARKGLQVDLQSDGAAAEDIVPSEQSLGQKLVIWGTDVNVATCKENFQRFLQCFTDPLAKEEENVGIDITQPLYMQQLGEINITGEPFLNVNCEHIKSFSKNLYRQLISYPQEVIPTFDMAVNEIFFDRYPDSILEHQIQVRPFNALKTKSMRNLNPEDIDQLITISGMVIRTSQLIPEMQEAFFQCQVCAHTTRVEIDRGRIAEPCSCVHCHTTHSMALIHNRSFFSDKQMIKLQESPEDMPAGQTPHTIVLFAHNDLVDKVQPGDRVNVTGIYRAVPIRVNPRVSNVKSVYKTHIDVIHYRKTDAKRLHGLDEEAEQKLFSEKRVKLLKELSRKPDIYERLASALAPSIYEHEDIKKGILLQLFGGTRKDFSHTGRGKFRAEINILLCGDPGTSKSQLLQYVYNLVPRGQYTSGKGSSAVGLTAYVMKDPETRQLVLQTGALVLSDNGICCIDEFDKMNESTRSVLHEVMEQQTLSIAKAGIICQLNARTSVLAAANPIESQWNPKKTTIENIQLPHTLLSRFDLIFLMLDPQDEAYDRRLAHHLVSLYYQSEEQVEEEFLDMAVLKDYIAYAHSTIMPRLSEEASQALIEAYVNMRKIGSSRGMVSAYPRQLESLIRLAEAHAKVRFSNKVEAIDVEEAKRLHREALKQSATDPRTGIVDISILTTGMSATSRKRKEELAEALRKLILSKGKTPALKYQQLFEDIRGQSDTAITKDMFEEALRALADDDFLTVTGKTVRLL
Sequence of Mcm2/4/6/7 complex (wild type) (P97311 whole entry, chain 3 of 4): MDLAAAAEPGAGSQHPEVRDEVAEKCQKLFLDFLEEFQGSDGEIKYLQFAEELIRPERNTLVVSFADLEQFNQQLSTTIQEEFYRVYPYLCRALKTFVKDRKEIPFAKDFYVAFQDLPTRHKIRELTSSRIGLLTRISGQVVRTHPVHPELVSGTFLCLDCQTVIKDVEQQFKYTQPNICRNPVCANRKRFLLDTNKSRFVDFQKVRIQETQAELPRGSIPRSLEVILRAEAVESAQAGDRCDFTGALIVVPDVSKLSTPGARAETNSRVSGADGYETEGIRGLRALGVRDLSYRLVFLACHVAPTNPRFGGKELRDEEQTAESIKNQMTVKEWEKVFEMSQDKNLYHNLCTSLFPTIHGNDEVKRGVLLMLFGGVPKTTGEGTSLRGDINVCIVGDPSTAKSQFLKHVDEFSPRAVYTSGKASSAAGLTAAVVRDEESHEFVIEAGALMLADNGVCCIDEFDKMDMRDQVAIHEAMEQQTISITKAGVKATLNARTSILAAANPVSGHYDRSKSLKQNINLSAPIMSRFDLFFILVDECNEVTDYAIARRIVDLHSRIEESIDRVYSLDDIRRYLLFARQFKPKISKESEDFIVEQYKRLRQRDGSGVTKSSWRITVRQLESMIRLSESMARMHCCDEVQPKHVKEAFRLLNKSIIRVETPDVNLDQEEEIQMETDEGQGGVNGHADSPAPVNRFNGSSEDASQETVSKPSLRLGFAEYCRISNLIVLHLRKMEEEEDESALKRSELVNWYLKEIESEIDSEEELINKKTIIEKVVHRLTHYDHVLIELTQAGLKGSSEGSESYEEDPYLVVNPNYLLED
Sequence of Mcm2/4/6/7 complex (wild type) (Q61881 whole entry, chain 4 of 4): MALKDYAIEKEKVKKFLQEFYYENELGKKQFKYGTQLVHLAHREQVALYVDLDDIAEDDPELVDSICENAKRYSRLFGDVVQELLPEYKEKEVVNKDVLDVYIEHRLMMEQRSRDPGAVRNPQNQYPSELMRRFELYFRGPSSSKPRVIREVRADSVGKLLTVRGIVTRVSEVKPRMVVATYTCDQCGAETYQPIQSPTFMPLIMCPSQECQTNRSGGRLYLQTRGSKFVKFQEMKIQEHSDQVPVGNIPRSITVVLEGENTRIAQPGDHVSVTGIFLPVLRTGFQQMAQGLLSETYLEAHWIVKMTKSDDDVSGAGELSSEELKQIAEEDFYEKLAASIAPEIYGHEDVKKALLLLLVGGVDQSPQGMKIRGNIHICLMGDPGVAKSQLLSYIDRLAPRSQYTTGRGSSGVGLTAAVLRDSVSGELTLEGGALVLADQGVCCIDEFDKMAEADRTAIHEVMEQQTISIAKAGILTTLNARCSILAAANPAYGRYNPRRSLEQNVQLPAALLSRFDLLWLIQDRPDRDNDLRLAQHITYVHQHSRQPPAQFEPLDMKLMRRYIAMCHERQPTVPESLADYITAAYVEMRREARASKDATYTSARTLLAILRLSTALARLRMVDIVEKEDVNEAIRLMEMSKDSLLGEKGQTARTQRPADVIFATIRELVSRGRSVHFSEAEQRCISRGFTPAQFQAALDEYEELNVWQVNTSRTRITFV

B1: Mcm3/5 complex (wild type) (complex, mouse)
chain 1: MAGTVVLDDVELREAQRDYLDFLDDEEDQGIYQNKVRELISDNQYRLIVSVNDLRRKNEKRANRLLNNAFEELVAFQRALKDFVASIDATYAKQYEEFYIGLEGSFGSKHVSPRTLTSCFLSCVVCVEGIVTKCSLVRPKVVRSVHYCPATKKTIERRYSDLTTLVAFPSSSVYPTKDEENNPLETEYGLSVYKDHQTITIQEMPEKAPAGQLPRSVDVILDDDLVDKVKPGDRIQVVGTYRCLPGKKGCYTSGTFRTVLIACNVKQMSKDIQPAFSADDIAKIKKFSKTRSKDVFEQLARSLAPSIHGHDYVKKAILCLLLGGVERELENGSHIRGDINILLIGDPSVAKSQLLRYVLCTAPRAIPTTGRGSSGVGLTAAVTTDQETGERRLEAGAMVLADRGVVCIDEFDKMSDMDRTAIHEVMEQGRVTIAKAGIHARLNARCSVLAAANPVYGRYDQYKTPMENIGLQDSLLSRFDLLFIMLDQMDPEQDREISDHVLRMHQYRAPGEQDGDALPLGSSVDILATDDPDFTQDDQQDTRIYEKHDSLLHGTKKKKEKMVSAAFMKKYIHVAKIIKPTLTQESAAYIAEEYSRLRSQDSMSSDTARTSPVTARTLETLIRLATAHAKARMSKTVDLQDAEEAVELVQYAYFKKVLEKEKKRKKASEDESDLEDEEEKSQEDTEQKRKRRKTHAKDGESYDPYDFSEAETQMPQVHTPKTDDSQEKTDDSQETQDSQKVELSEPRLKAFKAALLEVFQEAHEQSVGMLHLTESINRNREEPFSSEEIQACLSRMQDDNQVMVSEGIVFLI
chain 2: MSGFDDPGIFYSDSFGGDPGAEEGQARKSQLQRRFKEFLRQYRVGTDRTGFTFKYRDELKRHYNLGEYWIEVEMEDLASFDEELADHLHKQPAEHLQLLEEAAKEVADEVTRPRPAGDELLQDIQVMLKSDASPSSIRILKSDMMSHLVKIPGIIISASAVRAKATRISIQCRSCHNTLTNIAMRPGLEGYALPRKCNMDQAGRPKCPLDPYFIMPDKCKCVDFQTLKLQELPDAVPHGEMPRHMQLYCDRYLCDKVVPGNRVTIMGIYSIKKFGLNPSKGRDRVGVGIRSSYIRVLGIQVDTDGSGRSFAGSVSPQEEEEFRRLAALPNIYELISKSISPSIFGGMDMKKAIACLLFGGSRKRLPDGLTRRGDINLLMLGDPGTAKSQLLKFVEKCSPIGVYTSGKGSSAAGLTASVIRDPSSRNFIMEGGAMVLADGGVVCIDEFDKMREDDRVAIHEAMEQQTISIAKAGITTTLNSRCSVLAAANSVFGRWDETKGEDNIDFMPTILSRFDMIFIVKDEHNEERDMMLAKHVMTLHVSALTQTQAVEGEIDLAKMKKFIAYCRARCGPRLSAEAAEKLKNRYIIMRSGARQHERDSDRRSSIPITVRQLEAIVRIAEALSKMKLQPFATEADVEEALRLFQVSTLDAALSGNLSGVEGFTTQEDQEMLSRIEKQLKRRFAIGSQVSEHSIVQDFTKQKYPEHAIRKVLQLMLRRGEIQHRMQRKVLYRLK
  binding result: binds
